Experimental data: patent US20240400715A1 (VIBRANT PHARMA, published 2024)

What was measured:
[1] = biological target: T1, human CD3ε/δ (ACRO systems, CDD-H52W1) (human, UniProt P07766 23-126; P04234 22-105); experiment: BLI, antibody captured on AHC sensor, 30 C
T1 construct: bought recombinant heterodimer; also called human CD3 epsilon/delta; Human CD3ε/CD3δ

[2] = biological target: T1, human CD3ε/δ (ACRO systems, CDD-H52W1); experiment: serum-stability ELISA, Day 1 vs Day 0
Procedure: (§1) The samples to be tested were centrifuged at 4° C. at 12000 rpm for 30 minutes to remove the precipitate. 200 μl of each sample to be tested (0.5 mg/ml) was collected in a 1.5 ml Eppendorf tube. An equal volume of human serum (GEMINI, H2OYOOK) was added, mixed thoroughly, and the mixture was incubated in a 37° C. constant temperature CO₂ incubator. For a total of 10 days, 40 μl samples was aspirated every day and stored at −20° C.
(§2) Enzyme-linked immunosorbent assay (ELISA) was used to test the bispecific antibodies' binding to human CEA and human CD3 epsilon/delta antigen. The steps are as follows: the antigen human CD3ε/δ (ACRO systems, CDD-H52W1) and the recombinant tumor antigen human CEA (CEACAM-5/CD66e, ACRO systems, CE5-H5226) were diluted to 1 μg/ml with PBS, and then added to the 96-well plate at 100 μl per well. The wells were coated overnight at 4° C. After washing 3 times with 0.05% PBST, 200 μl 5% skimmed milk powder was added to each well and incubated at 37° C. for 2 h. After washing 3 times with 0.05% PBST, 100 μl primary antibody sample (10 μg/ml) was added to each well, and incubated at 37° C. for 2 h. After washing 3 times with 0.05% PBST, 100 μl (1:6000) diluted secondary antibody goat anti-human Fc-HRP (sigma, A2170) was added to each well, incubated at room temperature for 1 h. After washing 8 times with 0.05% PBST, 50 μl TMB color developing solution was added to each well, and incubated at room temperature for 10-15 min. 50 μl 1 mM HCl was added to each well to stop the color development. 450 nm Absorbance (OD) was read.
(§3) The binding of antibodies to antigen was calculated according to the following formula: Binding (%)=[(ODdayn−ODb)/(ODday0−ODb)]×100%. ODdayn: experimental well (the protein was stored in the serum for n days); ODday0: control well (the protein was not stored in the serum); ODb: blank well (no primary antibody added).

[3] = biological target: T1, human CD3ε/δ (ACRO systems, CDD-H52W1); experiment: serum-stability ELISA, Day 0 (reference)
Procedure: as §1, §2, §3

[4] = biological target: T1, human CD3ε/δ (ACRO systems, CDD-H52W1); experiment: serum-stability ELISA, Day 2 vs Day 0
Procedure: as §1, §2, §3

[5] = biological target: T1, human CD3ε/δ (ACRO systems, CDD-H52W1); experiment: serum-stability ELISA, Day 5 vs Day 0
Procedure: as §1, §2, §3

[6] = biological target: T1, human CD3ε/δ (ACRO systems, CDD-H52W1); experiment: serum-stability ELISA, Day 10 vs Day 0
Procedure: as §1, §2, §3

[7] = biological target: T1, human CD3ε/δ (ACRO systems, CDD-H52W1); experiment: serum-stability ELISA, Day 7 vs Day 0
Procedure: as §1, §2, §3

[8] = biological target: T1, human CD3ε/δ (ACRO systems, CDD-H52W1); experiment: serum-stability ELISA, Day 9 vs Day 0
Procedure: as §1, §2, §3

[9] = biological target: T1, human CD3ε/δ (ACRO systems, CDD-H52W1); experiment: serum-stability ELISA, Day 6 vs Day 0
Procedure: as §1, §2, §3

B1: HER2-CD3 bispecific antibody 501 (bispecific antibody, human IgG4 S228P, kappa, F234A L235A)
heavy: EVKLLESGGGLVQPKGSLKLSCAASGFTFNTYAMNWVRQAPGKGLEWVARIRSKYNNYATYYADSVKDRFTISRDDSQSILYLQMNNLKTEDTAMYYCVRHGNFGNSYVSWFAYWGQGTLVTVSSASTKGPSVFPLAPCSRSTSESTAALGCLVKDYFPEPVTVSWNSGALTSGVHTFPAVLQSSGLYSLSSVVTVPSSSLGTKTYTCNVDHKPSNTKVDKRVESKYGPPCPPCPAPEAAGGPSVFLFPPKPKDTLMISRTPEVTCVVVDVSQEDPEVQFNWYVDGVEVHNAKTKPREEQFNSTYRVVSVLTVLHQDWLNGKEYKCKVSNKGLPSSIEKTISKAKGQPREPQVYTLPPCQEEMTKNQVSLWCLVKGFYPSDIAVEWESNGQPENNYKTTPPVLDSDGSFFLYSRLTVDKSRWQEGNVFSCSVMHEALHNHYTQKSLSLSL
chain: QVQLVQSGGGLVQAGGSLRLSCAASGRTFSSYAMAWFRQAPGKEREFVAAISWSGANIYVADSVKGRFTISRDNAKDTVYLQMNSLKPEDTAVYYCAVKLGFAPVEERQYDYWGQGTQVTVSSESKYGPPCPPCPAPEAAGGPSVFLFPPKPKDTLMISRTPEVTCVVVDVSQEDPEVQFNWYVDGVEVHNAKTKPREEQFNSTYRVVSVLTVLHQDWLNGKEYKCKVSNKGLPSSIEKTISKAKGQPREPQVCTLPPSQEEMTKNQVSLSCAVKGFYPSDIAVEWESNGQPENNYKTTPPVLDSDGSFFLVSRLTVDKSRWQEGNVFSCSVMHEALHNRFTQKSLSLSL
light: QAVVTQESALTTSPGETVTLTCRSSTGAVTTSNYANWVQEKPDHLFTGLIGGTNKRAPGVPARFSGSLIGDKAALTITGAQTEDEAIYFCALWYSNLWVFGGGTKVEIKRTVAAPSVFIFPPSDEQLKSGTASVVCLLNNFYPREAKVQWKVDNALQSGNSQESVTEQDSKDSTYSLSSTLTLSKADYEKHKVYACEVTHQGLSSPVTKSFNRGEC
notes: VHH-hole chain assembled from VHH and hole-Fc with hinge
In the case of B1, the Kd [1] is reported as 3.14 nM, the koff [1] is reported as 0.000508 s⁻¹ and the kon [1] is reported as 162000 M⁻¹ s⁻¹.

B2: 102 (Fab-Knob-CEA+Hole) (bispecific antibody, human IgG4 S228P, kappa, F234A L235A)
heavy: EVKLLESGGGLVQPKGSLKLSCAASGFTFNTYAMNWVRQAPGKGLEWVARIRSKYNNYATYYADSVKDRFTISRDDSQSILYLQMNNLKTEDTAMYYCVRHGNFGNSYVSWFAYWGQGTLVTVSSASTKGPSVFPLAPCSRSTSESTAALGCLVKDYFPEPVTVSWNSGALTSGVHTFPAVLQSSGLYSLSSVVTVPSSSLGTKTYTCNVDHKPSNTKVDKRVESKYGPPCPPCPAPEAAGGPSVFLFPPKPKDTLMISRTPEVTCVVVDVSQEDPEVQFNWYVDGVEVHNAKTKPREEQFNSTYRVVSVLTVLHQDWLNGKEYKCKVSNKGLPSSIEKTISKAKGQPREPQVYTLPPCQEEMTKNQVSLWCLVKGFYPSDIAVEWESNGQPENNYKTTPPVLDSDGSFFLYSRLTVDKSRWQEGNVFSCSVMHEALHNHYTQKSLSLSLGGGGSGGGGSEVQLVESGGGFVQAGESLTLSCTSSTLTFTPYRMAWYRQAPGKQRDLVADISSGDGRTTNYADFAKGRFTISRDNIKNTVFLRMTNLKPEDTAVYYCNTFVSFVGIARSWGQGTQVTVSS
chain: ESKYGPPCPPCPAPEAAGGPSVFLFPPKPKDTLMISRTPEVTCVVVDVSQEDPEVQFNWYVDGVEVHNAKTKPREEQFNSTYRVVSVLTVLHQDWLNGKEYKCKVSNKGLPSSIEKTISKAKGQPREPQVCTLPPSQEEMTKNQVSLSCAVKGFYPSDIAVEWESNGQPENNYKTTPPVLDSDGSFFLVSRLTVDKSRWQEGNVFSCSVMHEALHNRFTQKSLSLSL
light: QAVVTQESALTTSPGETVTLTCRSSTGAVTTSNYANWVQEKPDHLFTGLIGGTNKRAPGVPARFSGSLIGDKAALTITGAQTEDEAIYFCALWYSNLWVFGGGTKVEIKRTVAAPSVFIFPPSDEQLKSGTASVVCLLNNFYPREAKVQWKVDNALQSGNSQESVTEQDSKDSTYSLSSTLTLSKADYEKHKVYACEVTHQGLSSPVTKSFNRGEC
notes: TA1 Fab, C17 VHH, IgG4 Fc KIH
B2 showed a Binding % [2] of 106%, a Binding % [3] of 100% and a Binding % [4] of 111%. It also gave a Binding % [5] of 108%, a Binding % [6] of 102% and a Binding % [7] of 105%. For the same binder, the Binding % [8] was 100% and the Binding % [9] was 110%.

B3: HER2-CD3 bispecific antibody 504 (bispecific antibody, human IgG4 S228P, kappa, F234A L235A)
chain: QVQLVQSGGGLVQAGGSLRLSCAASGRTFSSYAMAWFRQAPGKEREFVAAISWSGANIYVADSVKGRFTISRDNAKDTVYLQMNSLKPEDTAVYYCAVKLGFAPVEERQYDYWGQGTQVTVSSESKYGPPCPPCPAPEAAGGPSVFLFPPKPKDTLMISRTPEVTCVVVDVSQEDPEVQFNWYVDGVEVHNAKTKPREEQFNSTYRVVSVLTVLHQDWLNGKEYKCKVSNKGLPSSIEKTISKAKGQPREPQVYTLPPCQEEMTKNQVSLWCLVKGFYPSDIAVEWESNGQPENNYKTTPPVLDSDGSFFLYSRLTVDKSRWQEGNVFSCSVMHEALHNHYTQKSLSLSL
heavy: EVKLLESGGGLVQPKGSLKLSCAASGFTFNTYAMNWVRQAPGKGLEWVARIRSKYNNYATYYADSVKDRFTISRDDSQSILYLQMNNLKTEDTAMYYCVRHGNFGNSYVSWFAYWGQGTLVTVSSASTKGPSVFPLAPCSRSTSESTAALGCLVKDYFPEPVTVSWNSGALTSGVHTFPAVLQSSGLYSLSSVVTVPSSSLGTKTYTCNVDHKPSNTKVDKRVESKYGPPCPPCPAPEAAGGPSVFLFPPKPKDTLMISRTPEVTCVVVDVSQEDPEVQFNWYVDGVEVHNAKTKPREEQFNSTYRVVSVLTVLHQDWLNGKEYKCKVSNKGLPSSIEKTISKAKGQPREPQVCTLPPSQEEMTKNQVSLSCAVKGFYPSDIAVEWESNGQPENNYKTTPPVLDSDGSFFLVSRLTVDKSRWQEGNVFSCSVMHEALHNRFTQKSLSLSL
light: QAVVTQESALTTSPGETVTLTCRSSTGAVTTSNYANWVQEKPDHLFTGLIGGTNKRAPGVPARFSGSLIGDKAALTITGAQTEDEAIYFCALWYSNLWVFGGGTKVEIKRTVAAPSVFIFPPSDEQLKSGTASVVCLLNNFYPREAKVQWKVDNALQSGNSQESVTEQDSKDSTYSLSSTLTLSKADYEKHKVYACEVTHQGLSSPVTKSFNRGEC
notes: VHH-knob chain assembled from VHH and knob-Fc with hinge
B3 gave a Kd [1] of 2.79 nM, a koff [1] of 0.0005 s⁻¹ and a kon [1] of 179000 M⁻¹ s⁻¹.

B4: 101 (Fab-Knob+CEA-Hole) (bispecific antibody, human IgG4 S228P, kappa, F234A L235A)
heavy: EVKLLESGGGLVQPKGSLKLSCAASGFTFNTYAMNWVRQAPGKGLEWVARIRSKYNNYATYYADSVKDRFTISRDDSQSILYLQMNNLKTEDTAMYYCVRHGNFGNSYVSWFAYWGQGTLVTVSSASTKGPSVFPLAPCSRSTSESTAALGCLVKDYFPEPVTVSWNSGALTSGVHTFPAVLQSSGLYSLSSVVTVPSSSLGTKTYTCNVDHKPSNTKVDKRVESKYGPPCPPCPAPEAAGGPSVFLFPPKPKDTLMISRTPEVTCVVVDVSQEDPEVQFNWYVDGVEVHNAKTKPREEQFNSTYRVVSVLTVLHQDWLNGKEYKCKVSNKGLPSSIEKTISKAKGQPREPQVYTLPPCQEEMTKNQVSLWCLVKGFYPSDIAVEWESNGQPENNYKTTPPVLDSDGSFFLYSRLTVDKSRWQEGNVFSCSVMHEALHNHYTQKSLSLSL
chain: EVQLVESGGGFVQAGESLTLSCTSSTLTFTPYRMAWYRQAPGKQRDLVADISSGDGRTTNYADFAKGRFTISRDNIKNTVFLRMTNLKPEDTAVYYCNTFVSFVGIARSWGQGTQVTVSSESKYGPPCPPCPAPEAAGGPSVFLFPPKPKDTLMISRTPEVTCVVVDVSQEDPEVQFNWYVDGVEVHNAKTKPREEQFNSTYRVVSVLTVLHQDWLNGKEYKCKVSNKGLPSSIEKTISKAKGQPREPQVCTLPPSQEEMTKNQVSLSCAVKGFYPSDIAVEWESNGQPENNYKTTPPVLDSDGSFFLVSRLTVDKSRWQEGNVFSCSVMHEALHNRFTQKSLSLSL
light: QAVVTQESALTTSPGETVTLTCRSSTGAVTTSNYANWVQEKPDHLFTGLIGGTNKRAPGVPARFSGSLIGDKAALTITGAQTEDEAIYFCALWYSNLWVFGGGTKVEIKRTVAAPSVFIFPPSDEQLKSGTASVVCLLNNFYPREAKVQWKVDNALQSGNSQESVTEQDSKDSTYSLSSTLTLSKADYEKHKVYACEVTHQGLSSPVTKSFNRGEC
notes: TA1 anti-CD3 Fab, C17 anti-CEA VHH, human IgG4 Fc knob-into-hole
Binder B4 has a Binding % [2] of 98.5%, a Binding % [3] of 100% and a Binding % [4] of 101%. The Binding % [5] was 99.2%, the Binding % [6] was 101% and the Binding % [7] was 100%. The Binding % [8] was 102% and the Binding % [9] was 103%.
